One block for each substance: values may come before it.
Key:
[1] = molecular target: full length human ACVR1 (R206H) on HEK293/BRE-luc/hACVR1-R206H-clone H2 cells (human) (UniProt Q04771); experiment: flow cytometry, secondary antibody alone (70 nM run), HEK293/hACVR1-R206H cells
[2] = molecular target: full length human ACVR1 (R206H) on HEK293/BRE-luc/hACVR1-R206H-clone H2 cells (human) (UniProt Q04771); experiment: flow cytometry, secondary antibody alone (66.6 nM run), HEK293/hACVR1-R206H cells
[3] = molecular target: full length wild type human ACVR1 on HEK293/BRE-luc/hACVR1-wild type cells (human) (UniProt Q04771); experiment: flow cytometry, secondary antibody alone (66.6 nM run), HEK293/hACVR1-wt cells
Sequence of full length wild type human ACVR1 on HEK293/BRE-luc/hACVR1-wild type cells (human) (Q04771 21-509): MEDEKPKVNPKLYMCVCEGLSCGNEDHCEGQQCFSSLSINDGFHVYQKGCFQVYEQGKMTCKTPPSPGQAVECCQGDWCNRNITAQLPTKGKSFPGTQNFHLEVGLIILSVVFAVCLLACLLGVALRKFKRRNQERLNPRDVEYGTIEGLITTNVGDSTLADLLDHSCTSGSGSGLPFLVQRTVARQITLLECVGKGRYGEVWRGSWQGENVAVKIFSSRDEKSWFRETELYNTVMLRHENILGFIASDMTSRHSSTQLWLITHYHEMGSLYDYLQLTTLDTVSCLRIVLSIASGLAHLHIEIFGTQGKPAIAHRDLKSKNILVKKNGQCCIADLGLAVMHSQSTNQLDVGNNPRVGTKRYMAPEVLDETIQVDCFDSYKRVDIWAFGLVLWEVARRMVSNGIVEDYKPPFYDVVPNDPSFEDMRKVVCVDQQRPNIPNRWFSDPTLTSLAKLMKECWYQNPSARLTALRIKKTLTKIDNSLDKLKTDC

[4] = molecular target: mouse ACVR1 extracellular domain expressed with a C-terminal myc-myc-hexahistidine tag (mouse); experiment: SPR (Biacore), mAb captured, 25 C
Sequence of mouse ACVR1 extracellular domain expressed with a C-terminal myc-myc-hexahistidine tag (mouse) (chain, as listed by the source limits assumed): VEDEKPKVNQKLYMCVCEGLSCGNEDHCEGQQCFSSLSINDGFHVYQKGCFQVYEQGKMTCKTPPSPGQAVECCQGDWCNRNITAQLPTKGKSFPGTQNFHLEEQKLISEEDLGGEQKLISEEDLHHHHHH

[5] = molecular target: human ACVR1 extracellular domain expressed with a C-terminal mouse IgG2a Fc tag (human); experiment: SPR (Biacore), mAb captured, 25 C
Sequence of human ACVR1 extracellular domain expressed with a C-terminal mouse IgG2a Fc tag (human) (chain, as listed by the source limits assumed): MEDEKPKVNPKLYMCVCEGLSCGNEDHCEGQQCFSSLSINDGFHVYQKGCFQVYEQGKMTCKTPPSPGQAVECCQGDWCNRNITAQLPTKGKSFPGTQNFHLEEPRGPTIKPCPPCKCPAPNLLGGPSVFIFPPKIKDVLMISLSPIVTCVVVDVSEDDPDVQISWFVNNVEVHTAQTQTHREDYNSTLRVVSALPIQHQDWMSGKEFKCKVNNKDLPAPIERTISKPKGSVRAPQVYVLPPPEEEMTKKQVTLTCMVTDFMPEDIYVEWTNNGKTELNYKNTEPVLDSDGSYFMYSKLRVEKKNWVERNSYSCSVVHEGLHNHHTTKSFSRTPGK

[6] = molecular target: human ACVR1 extracellular domain expressed with a C-terminal myc-myc-hexahistidine tag (human); experiment: SPR (Biacore), mAb captured, 25 C
Sequence of human ACVR1 extracellular domain expressed with a C-terminal myc-myc-hexahistidine tag (human) (chain, as listed by the source limits assumed): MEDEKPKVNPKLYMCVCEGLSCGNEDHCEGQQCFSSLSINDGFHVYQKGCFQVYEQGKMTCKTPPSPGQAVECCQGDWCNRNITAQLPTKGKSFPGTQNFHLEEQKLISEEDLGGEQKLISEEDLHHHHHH

[7] = molecular target: full length human ACVR1 (R206H) on HEK293/BRE-luc/hACVR1-R206H-clone H2 cells (human) (UniProt Q04771); experiment: flow cytometry, 70 nM antibody, HEK293/hACVR1-R206H cells
[8] = molecular target: full length human ACVR1 (R206H) on HEK293/BRE-luc/hACVR1-R206H-clone H2 cells (human) (UniProt Q04771); experiment: flow cytometry, 66.6 nM antibody, HEK293/hACVR1-R206H cells
[9] = molecular target: mouse ACVR1 extracellular domain expressed with a C-terminal myc-myc-hexahistidine tag (mouse); experiment: SPR (Biacore), mAb captured, 37 C
[10] = molecular target: human ACVR1 extracellular domain expressed with a C-terminal mouse IgG2a Fc tag (human); experiment: SPR (Biacore), mAb captured, 37 C
[11] = molecular target: human ACVR1 extracellular domain expressed with a C-terminal myc-myc-hexahistidine tag (human); experiment: SPR (Biacore), mAb captured, 37 C
[12] = molecular target: full length wild type human ACVR1 on HEK293/BRE-luc/hACVR1-wild type cells (human) (UniProt Q04771); experiment: flow cytometry, 66.6 nM antibody, HEK293/hACVR1-wt cells
[13] = molecular target: full length human ACVR1 (R206H) on HEK293/BRE-luc/hACVR1-R206H-clone H2 cells (human) (UniProt Q04771); experiment: cell-based or functional assay

Sequence of full length human ACVR1 (R206H) on HEK293/BRE-luc/hACVR1-R206H-clone H2 cells (human) (Q04771 21-509 R206H): as the sequence (Q04771 21-509) above, with R186H counted along it

MFI - Normalized to Unstained Control [1]: 1 fold
MFI - Normalized to Unstained Control [2]: 1 fold
MFI - Normalized to Unstained Control [3]: 1 fold
Substance: Alexa Fluor-647 conjugated secondary antibody (Jackson ImmunoResearch, anti-human #109-607-003), alone

900 nM or 100 nM Ag Bound (RU) [4]: -2 RU
100 nM Ag Bound (RU) [5]: -2 RU
900 nM or 100 nM Ag Bound (RU) [6]: 1 RU
MFI - Normalized to Unstained Control [7]: 3 fold
MFI - Normalized to Unstained Control [8]: 1 fold
900 nM or 100 nM Ag Bound (RU) [9]: 0 RU
100 nM Ag Bound (RU) [10]: -1 RU
900 nM or 100 nM Ag Bound (RU) [11]: 0 RU
MFI - Normalized to Unstained Control [12]: 3 fold
Substance: hIgG4 isotype control antibody (REGN1945)

EC50 [M], BRE-luc reporter activation by ligand [13]: 3.33e-10 M
Substance: human Activin A (R&D System 338-AC) (from UniProt P08476 311-426) (ligand)

EC50 [M], BRE-luc reporter activation by ligand (run with 2 nM hBMP7) [13]: 1.22e-09 M
EC50 [M], BRE-luc reporter activation by ligand (run with 3 nM hBMP7) [13]: 2.97e-10 M
Substance: human Bone Morphogenetic Protein 7 (R&D System 354-BP/C) (from UniProt P18075 293-431) (ligand)

Source: patent US20210253716A1
